What was measured:
[1] = target: I114W
[2] = target: E68Q
[3] = target: L72I
[4] = target: M104D
[5] = target: V69A
[6] = target: N71Y

B1: CD25 (receptor)
chain: ELCDDDPPEIPHATFKAMAYKEGTMLNCECKRGFRRIKSGSLYMLCTGNSSHSSWDNQCQCTSSATRNTTKQVTPQPEEQKERKTTEMQSPMQPVDQASLPGHCREPPPWENEATERIYHFVVGQMVYYQCVQGYRALHRGPAESVCKMTHGKTRWTQPQLICTGEMETSQFPGEEKPQASPEGRPESETSCLVTTTDFQIQTEMAATMETSIFTTEYQHHHHHH
Kd [1]: 0.038 nM | Kd [2]: 0.022 nM | Kd [3]: 0.024 nM | Kd [4]: 0.028 nM | Kd [5]: 0.023 nM | Kd [6]: 0.018 nM
